Measurements published in patent US20240043567A1 (published 2024).

Molecular target: QP3732 (Her2M2-Fc)
Experiment: ELISA

EC50: 0.0307 µg/mL
B1: pertuzumab (antibody, V domains shown)
VH: EVQLVESGGGLVQPGGSLRLSCAASGFTFTDYTMDWVRQAPGKGLEWVADVNPNSGGSIYNQRFKGRFTLSVDRSKNTLYLQMNSLRAEDTAVYYCARNLGPSFYFDYWGQGTLVTVSS
VL: DIQMTQSPSSLSASVGDRVTITCKASQDVSIGVAWYQQKPGKAPKLLIYSASYRYTGVPSRFSGSGSGTDFTLTISSLQPEDFATYYCQQYYIYPYTFGQGTKVEIK
